Experimental data published in paper PMC11050165.

Target: Haemophilus influenzae tellurite-resistance protein A (HiTehA) (Haemophilus influenzae) (UniProt P44741)
Assay: cryo-EM structure; single-particle cryo-EM at 200 kV (Glacios, Falcon 4) of purified HiTehA at 3.0 mg/mL in detergent micelles (DDM, GDN, LMNG or OG); C3 symmetry imposed; no binding protein used

“Haemophilus influenzae tellurite-resistance protein A (HiTehA) (from UniProt P44741 1-328) (natural protein)” showed a stoichiometry N of 3.
